The source of these data is US20090208538A1 (ROCKEFELLER UNIVERSITY, published 2009).

B1: cdr2 265-273 HPFVNGVEK (peptide)
peptide: HPFVNGVEK
B2: cdr2 331-339 CIRRAKAVK (peptide)
peptide: CIRRAKAVK
B3: cdr2 154-162 PAPSFACLK (peptide)
peptide: PAPSFACLK
B4: cdr2 153-161 KPAPSFACL (peptide)
peptide: KPAPSFACL
B5: cdr2 68-76 KQVELLRQM (peptide)
peptide: KQVELLRQM
B6: cdr2 298-306 VPESHRKPL (peptide)
peptide: VPESHRKPL
B7: cdr2 225-233 LVLKENSEL (peptide)
peptide: LVLKENSEL
B8: cdr2 253-261 EVAEMRQML (peptide)
peptide: EVAEMRQML
B9: cdr2 30-38 LAAELGKTL (peptide)
peptide: LAAELGKTL
B10: cdr2 444-452 RTKYRSLSS (peptide)
peptide: RTKYRSLSS
B11: cdr2 275-283 VPDSLYVPF (peptide)
peptide: VPDSLYVPF
B12: cdr2 381-389 TSRAAAKDL (peptide)
peptide: TSRAAAKDL
B13: cdr2 418-426 TPPEYKALF (peptide)
peptide: TPPEYKALF
B14: cdr2 229-237 ENSELEQQL (peptide)
peptide: ENSELEQQL
B15: cdr2 419-427 PPEYKALFK (peptide)
peptide: PPEYKALFK
B16: cdr2 415-423 SPTTPPEYK (peptide)
peptide: SPTTPPEYK
B17: cdr2 401-409 SGWELASVN (peptide)
peptide: SGWELASVN
B18: cdr2 60-68 LQEIEYLTK (peptide)
peptide: LQEIEYLTK
B19: cdr2 66-74 LTKQVELLR (peptide)
peptide: LTKQVELLR
B20: cdr2 276-284 PDSLYVPFK (peptide)
peptide: PDSLYVPFK
B21: cdr2 238-246 GATGAYRAR (peptide)
peptide: GATGAYRAR
B22: cdr2 357-365 KVKYEELLK (peptide)
peptide: KVKYEELLK
B23: cdr2 103-111 ADSKASQQK (peptide)
peptide: ADSKASQQK
B24: cdr2 129-137 LQSQVEELK (peptide)
peptide: LQSQVEELK
B25: cdr2 429-437 IFSCIKKTK (peptide)
peptide: IFSCIKKTK
B26: cdr2 164-172 LYDLRQHFV (peptide)
peptide: LYDLRQHFV
B27: cdr2 201-209 TVTMLQAQL (peptide)
peptide: TVTMLQAQL
B28: cdr2 120-128 ECLQTNIDH (peptide)
peptide: ECLQTNIDH
B29: cdr2 65-73 YLTKQVELL (peptide)
peptide: YLTKQVELL
B30: cdr2 111-119 KILSLTETI (peptide)
peptide: KILSLTETI
B31: cdr2 203-211 TMLQAQLSL (peptide)
peptide: TMLQAQLSL
B32: cdr2 176-184 VFAEKITSL (peptide)
peptide: VFAEKITSL
B33: cdr2 79-87 QHAKVYEQL (peptide)
peptide: QHAKVYEQL
B34: cdr2 173-181 YDHVFAEKI (peptide)
peptide: YDHVFAEKI
B35: cdr2 316-324 SSLAGSDIV (peptide)
peptide: SSLAGSDIV

Where only a bound is given, the exact number is not on record here.

The first experiment has as its target HLA-A*0301 (human). Nature of the experiment: iTopia net score.
B1 came in with an iScore of 0.05.
The molecule B2 returned an iScore of 0.436.
B3 had an iScore of 0.122.

The target of another experiment is HLA-B*0702 (human). Briefly: iTopia affinity.
In the case of B4, the ED50 came out at 5.5 µM.
On to B5, for which the ED50 came to 180 µM.
Molecule B6 registered an ED50 of 9.9 µM.
Same read-out and setting: under B7 stands 34 µM.
The same measure, in the same setting: for B8 the value was 18 µM; for B9, 33 µM.
Same read-out and setting: under B10 stands 73 µM; under B11, 47 µM; under B12, 18 µM.
As to B13, the ED50 came out at 100 µM.
The same measure, in the same setting: under B14 stands 93 µM.

Another experiment has as its target HLA-A*0301 (human). Briefly: iTopia off-rate.
In turn, B1 returned a t1/2 of 0.61.
B2 registered a t1/2 of 6.47.
Same read-out and setting: under B3 stands 2.19.

The target in another experiment is HLA-A*1101 (human). Briefly: iTopia affinity.
In turn, B15 had an ED50 of 26 µM.
The molecule B16 returned an ED50 of 20 µM.
Still for that read-out and setting: for B17 the value was 31 µM; for B18, 62 µM.
Still for that read-out and setting: for B19 the value was 7.9 µM; for B20, 25 µM.
On the same count and under the same terms, under B21 stands 19 µM.
B22 showed an ED50 of 1.2 µM.
The same measure, in the same setting: for B23 the value was 56 µM; for B24, 24 µM.
On the same count and under the same terms, under B25 stands 12 µM.

Another experiment has as its target T1, HLA-A*0201 (human).
T1 construct: also called HLA-A2.1; HLA A2.1
Briefly: iTopia binding.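 Also: each peptide tested for binding to HLA-A2 molecules immobilized on plates, using a commercial screening kit run per its supplied protocol and reagents.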
As for B26, the “binding vs positive control” value is over 30%.
On the same count and under the same terms, for B27 the value was over 30%; for B28, over 30%; for B7, over 30%.
On the same count and under the same terms, under B29 stands over 30%; under B30, over 30%.
As to B31, the “binding vs positive control” value is over 30%.
In the case of B32, the “binding vs positive control” value is over 30%.

The next experiment deals with HLA-A*2402 (human). Nature of the experiment: iTopia affinity.
B33: the ED50 was determined as 10 µM.
Regarding B26, the ED50 came out at 1.6 µM.
The same measure, in the same setting: for B27 the value was 43 µM.
The molecule B28 showed an ED50 of 18 µM.
Still for that read-out and setting: for B29 the value was 1.9 µM; for B25, 8.6 µM.
B34 displayed an ED50 of 18 µM.
Same read-out and setting: for B30 the value was 1.5 µM.
On the same count and under the same terms, under B31 stands 0.7 µM.
The same measure, in the same setting: under B35 stands 43 µM; under B32, 0.26 µM.
B11 yielded an ED50 of 9.2 µM.
The same measure, in the same setting: under B13 stands 11 µM.

A further experiment deals with T1, HLA-A*0201. Briefly: iTopia affinity.
Molecule B26 yielded an ED50 of 0.5 µM.
The molecule B27 showed an ED50 of 3 µM.
On the same count and under the same terms, under B28 stands 30 µM.
B7 displayed an ED50 of 7 µM.
The same measure, in the same setting: for B29 the value was 2 µM; for B30, 7 µM; for B31, 0.8 µM.
Take B32: the ED50 was 5 µM.

Another experiment deals with HLA-A*1101 (human). Briefly: iTopia net score.
The molecule B15 gave an iScore of 0.058.
Regarding B16, the iScore was 0.136.
The same measure, in the same setting: under B17 stands 0.059.
In turn, B18 displayed an iScore of 0.048.
On the same count and under the same terms, for B19 the value was 0.238; for B20, 0.063; for B21, 0.056.
On the same count and under the same terms, under B22 stands 0.22; under B23, 0.054.
The same measure, in the same setting: under B24 stands 0.103; under B25, 0.088.

The next experiment has as its target T1, HLA-A*0201. Nature of the experiment: iTopia net score.
B26 displayed an iScore of 0.199.
The same measure, in the same setting: under B27 stands 0.132; under B28, 0.178; under B7, 0.119.
On the same count and under the same terms, under B29 stands 0.645; under B30, 0.512.
On the same count and under the same terms, for B31 the value was 0.811; for B32, 0.106.

The next experiment addresses HLA-B*0702 (human). Nature of the experiment: iTopia off-rate.
In the case of B4, the t1/2 amounted to 1.29.
In turn, B5 showed a t1/2 of 1.15.
Same read-out and setting: under B6 stands 1.33; under B7, 0.49.
On the same count and under the same terms, for B8 the value was 0.74; for B9, 0.5.
Take B10: the t1/2 is 1.83.
Same read-out and setting: for B11 the value was 0.58; for B12, 1.19; for B13, 1.26.
Same read-out and setting: under B14 stands 1.13.

A further experiment has as its target HLA-A*1101 (human). Briefly: iTopia off-rate.
For the molecule B15, the t1/2 came to 0.31.
The same measure, in the same setting: under B16 stands 1.78; under B17, 0.8; under B18, 0.68.
B19 gave a t1/2 of 1.56.
In turn, B20 had a t1/2 of 0.41.
For B21, the t1/2 was found to be 0.3.
Same read-out and setting: under B22 stands 2.26; under B23, 0.51; under B24, 1.1.
On the same count and under the same terms, under B25 stands 0.92.

A further experiment concerns the target HLA-A*2402 (human). Briefly: iTopia net score.
In the case of B33, the iScore worked out at 0.058.
The molecule B26 yielded an iScore of 0.157.
The same measure, in the same setting: under B27 stands 0.062; under B28, 0.095; under B29, 0.107.
On to B25, for which the iScore was 0.108.
B34: the iScore is 0.089.
B30 returned an iScore of 0.261.
In turn, B31 had an iScore of 0.117.
Regarding B35, the iScore stood at 0.081.
In the case of B32, the iScore was found to be 0.446.
The molecule B11 returned an iScore of 0.116.
For B13, the iScore was found to be 0.084.

Another experiment deals with HLA-A*0301 (human). Briefly: iTopia affinity.
In turn, B1 yielded an ED50 of 34 µM.
Still for that read-out and setting: for B2 the value was 14 µM; for B3, 11 µM.

A further experiment deals with T1, HLA-A*0201. Briefly: iTopia off-rate.
Molecule B26 came in with a t1/2 of 0.4.
The same measure, in the same setting: under B27 stands 0.6; under B28, 5.4.
Still for that read-out and setting: for B7 the value was 0.8; for B29, 8.1; for B30, 10.5.
The molecule B31 registered a t1/2 of 9.8.
B32 came in with a t1/2 of 0.4.

The next experiment has as its target HLA-B*0702 (human). Briefly: iTopia net score.
In turn, B4 returned an iScore of 0.205.
In turn, B5 returned an iScore of 0.055.
On the same count and under the same terms, for B6 the value was 0.22; for B7, 0.054.
The same measure, in the same setting: for B8 the value was 0.077; for B9, 0.052.
On the same count and under the same terms, for B10 the value was 0.031; for B11, 0.068.
B12: the iScore is 0.067.
Molecule B13 registered an iScore of 0.027.
The same measure, in the same setting: under B14 stands 0.05.

The target of another experiment is HLA-A*2402 (human). Briefly: iTopia off-rate.
B33: the t1/2 came to 0.25.
The same measure, in the same setting: for B26 the value was 0.27; for B27, 0.59.
The molecule B28 displayed a t1/2 of 0.72.
Still for that read-out and setting: for B29 the value was 0.22.
The same measure, in the same setting: for B25 the value was 1.16.
In turn, B34 had a t1/2 of 0.75.
B30 came in with a t1/2 of 0.82.
As for B31, the t1/2 turned out to be 0.25.
Still for that read-out and setting: under B35 stands 1.32; under B32, 0.78.
Still for that read-out and setting: for B11 the value was 1.26.
On the same count and under the same terms, under B13 stands 0.46.
